What was measured:
Experiment in all cases: holdup assay
Parameters in all cases: key: below the threshold = too weak to quantify, mostly under pKd 3.1 to 4
FRMPD2_2, Q68DX3 = target: FRMPD2_2, Q68DX3
NHERF2_2, Q15599 = target: NHERF2_2, Q15599
GRIP2_6, Q9C0E4 = target: GRIP2_6, Q9C0E4
Inadl_2, Q8NI35 = target: Inadl_2, Q8NI35
MPDZ_10, O75970 = target: T1, MPDZ_10, O75970
T1 sequence (O75970 1624-1722, limits assumed, looked up): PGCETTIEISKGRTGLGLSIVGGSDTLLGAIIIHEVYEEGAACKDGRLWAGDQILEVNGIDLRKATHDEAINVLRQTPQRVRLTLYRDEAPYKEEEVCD

PDZRN3_1, Q9UPQ7 = target: T2, PDZRN3_1, Q9UPQ7
T2 sequence (Q9UPQ7 244-349, limits assumed, looked up): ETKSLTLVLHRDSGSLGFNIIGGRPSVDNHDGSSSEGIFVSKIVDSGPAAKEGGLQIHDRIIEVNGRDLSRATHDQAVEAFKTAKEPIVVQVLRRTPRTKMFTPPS

DLG3_3, Q92796 = target: T3, DLG3_3, Q92796
T3 sequence (Q92796 374-475, limits assumed, looked up): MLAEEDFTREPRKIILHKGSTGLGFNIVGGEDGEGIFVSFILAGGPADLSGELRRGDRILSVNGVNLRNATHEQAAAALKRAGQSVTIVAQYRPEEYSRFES

FRMPD2_3, Q68DX3 = target: FRMPD2_3, Q68DX3
PTPN13_1, Q12923 = target: T4, PTPN13_1, Q12923
T4 sequence (Q12923 1088-1188, limits assumed, looked up): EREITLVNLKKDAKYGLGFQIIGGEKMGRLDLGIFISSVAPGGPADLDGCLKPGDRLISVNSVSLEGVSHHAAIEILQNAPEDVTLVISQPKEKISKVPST

LNX1_1, Q8TBB1 = target: LNX1_1, Q8TBB1
GRIP2_5, Q9C0E4 = target: GRIP2_5, Q9C0E4
TJP1_3, Q07157 = target: TJP1_3, Q07157
NHERF3_1, Q5T2W1 = target: T5, NHERF3_1, Q5T2W1
T5 sequence (Q5T2W1 4-100, limits assumed, looked up): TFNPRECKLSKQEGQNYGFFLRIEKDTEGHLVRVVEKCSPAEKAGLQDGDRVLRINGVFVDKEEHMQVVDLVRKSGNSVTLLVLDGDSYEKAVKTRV

LAP2, Q96RT1 = target: LAP2, Q96RT1
LNX1_2, Q8TBB1 = target: LNX1_2, Q8TBB1
SNTG2, Q9NY99 = target: T6, SNTG2, Q9NY99
T6 sequence (Q9NY99 68-166, limits assumed, looked up): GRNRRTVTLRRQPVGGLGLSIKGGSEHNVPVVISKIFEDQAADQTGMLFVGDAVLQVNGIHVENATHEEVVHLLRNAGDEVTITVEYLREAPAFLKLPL

PARD3_3, Q8TEW0 = target: PARD3_3, Q8TEW0
APBA1_2, Q02410 = target: T7, APBA1_2, Q02410
T7 sequence (Q02410 742-832, limits assumed, looked up): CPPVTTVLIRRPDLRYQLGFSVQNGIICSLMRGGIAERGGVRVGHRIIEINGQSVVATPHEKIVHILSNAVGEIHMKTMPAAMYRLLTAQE

HTRA2, O43464 = target: HTRA2, O43464
CASK, O14936 = target: CASK, O14936
GORASP1, Q9BQQ3 = target: GORASP1, Q9BQQ3
MAGI1_1, Q96QZ7 = target: MAGI1_1, Q96QZ7
PARD3B_1, Q8TEW8 = target: T8, PARD3B_1, Q8TEW8
T8 sequence (Q8TEW8 196-299, limits assumed, looked up): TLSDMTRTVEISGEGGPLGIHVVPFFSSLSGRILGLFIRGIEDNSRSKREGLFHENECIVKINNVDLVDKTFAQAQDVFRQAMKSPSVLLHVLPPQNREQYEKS

GRIP2_4, Q9C0E4 = target: GRIP2_4, Q9C0E4
APBA2_1, Q99767 = target: T9, APBA2_1, Q99767
T9 sequence (Q99767 563-664, limits assumed, looked up): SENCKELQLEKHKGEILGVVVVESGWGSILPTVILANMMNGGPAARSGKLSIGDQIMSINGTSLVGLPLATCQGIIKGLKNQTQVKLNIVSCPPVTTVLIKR

GRIP2_3, Q9C0E4 = target: GRIP2_3, Q9C0E4
TIAM2, Q8IVF5 = target: T10, TIAM2, Q8IVF5
T10 sequence (Q8IVF5 885-986, limits assumed, looked up): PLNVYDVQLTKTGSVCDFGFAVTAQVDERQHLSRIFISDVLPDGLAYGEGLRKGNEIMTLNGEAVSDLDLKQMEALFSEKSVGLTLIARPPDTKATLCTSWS

[1] = plain residues with an end cap or a label only (N-terminal biotin on a linker: ado-ado)
[2] = modified: phospho on T at position -2 from the C-terminal residue

Chain of NHERF2_2, Q15599 (Q15599 142-238): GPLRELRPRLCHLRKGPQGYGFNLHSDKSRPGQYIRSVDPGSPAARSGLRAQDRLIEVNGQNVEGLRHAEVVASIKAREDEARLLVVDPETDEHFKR
Chain of GRIP2_5, Q9C0E4 (Q9C0E4 544-642): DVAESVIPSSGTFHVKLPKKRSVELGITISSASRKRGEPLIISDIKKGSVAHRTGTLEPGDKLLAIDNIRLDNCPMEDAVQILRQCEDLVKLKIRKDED
Chain of GRIP2_4, Q9C0E4 (Q9C0E4 446-548): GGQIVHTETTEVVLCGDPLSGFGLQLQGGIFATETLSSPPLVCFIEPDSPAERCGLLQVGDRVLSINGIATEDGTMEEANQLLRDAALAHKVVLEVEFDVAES
Chain of GRIP2_6, Q9C0E4 (Q9C0E4 648-740): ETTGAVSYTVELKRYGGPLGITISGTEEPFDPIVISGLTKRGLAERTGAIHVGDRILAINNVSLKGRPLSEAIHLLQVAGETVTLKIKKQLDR
Chain of Inadl_2, Q8NI35 (Q8NI35 238-335): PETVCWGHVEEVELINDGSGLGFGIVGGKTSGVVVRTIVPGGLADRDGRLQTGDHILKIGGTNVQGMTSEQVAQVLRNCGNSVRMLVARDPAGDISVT
Chain of TJP1_3, Q07157 (Q07157 416-512): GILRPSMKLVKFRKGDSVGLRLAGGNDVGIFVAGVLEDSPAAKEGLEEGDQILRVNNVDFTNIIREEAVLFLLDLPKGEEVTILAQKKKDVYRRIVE
Chain of HTRA2, O43464 (O43464 355-458): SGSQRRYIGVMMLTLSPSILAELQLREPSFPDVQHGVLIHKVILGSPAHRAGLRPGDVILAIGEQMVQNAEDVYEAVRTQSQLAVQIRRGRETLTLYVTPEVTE
Chain of PARD3_3, Q8TEW0 (Q8TEW0 582-685): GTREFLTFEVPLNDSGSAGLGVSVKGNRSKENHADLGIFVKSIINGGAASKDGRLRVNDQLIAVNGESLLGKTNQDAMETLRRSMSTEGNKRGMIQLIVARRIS
Chain of MAGI1_1, Q96QZ7 (Q96QZ7 1-106): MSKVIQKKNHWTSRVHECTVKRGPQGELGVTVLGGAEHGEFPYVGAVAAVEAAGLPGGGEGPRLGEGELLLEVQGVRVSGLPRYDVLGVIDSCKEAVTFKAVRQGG
Chain of GORASP1, Q9BQQ3 (Q9BQQ3 1-208): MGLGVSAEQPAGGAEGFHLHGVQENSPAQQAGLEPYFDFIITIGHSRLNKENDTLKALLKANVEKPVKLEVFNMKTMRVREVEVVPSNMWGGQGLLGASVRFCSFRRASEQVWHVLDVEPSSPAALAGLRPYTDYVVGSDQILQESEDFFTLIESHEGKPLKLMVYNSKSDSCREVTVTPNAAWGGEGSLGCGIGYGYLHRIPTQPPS
Chain of LNX1_2, Q8TBB1 (Q8TBB1 371-470): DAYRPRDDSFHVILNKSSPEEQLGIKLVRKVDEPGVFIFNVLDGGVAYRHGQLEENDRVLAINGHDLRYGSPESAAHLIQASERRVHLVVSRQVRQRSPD
Chain of LNX1_1, Q8TBB1 (Q8TBB1 261-371): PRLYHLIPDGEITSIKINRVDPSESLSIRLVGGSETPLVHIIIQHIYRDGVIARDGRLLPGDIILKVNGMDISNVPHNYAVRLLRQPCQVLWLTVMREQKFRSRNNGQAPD
Chain of FRMPD2_2, Q68DX3 (Q68DX3 944-1038): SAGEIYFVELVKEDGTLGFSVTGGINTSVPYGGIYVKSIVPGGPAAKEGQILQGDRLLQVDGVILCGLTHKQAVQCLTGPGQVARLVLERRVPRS
Chain of FRMPD2_3, Q68DX3 (Q68DX3 1073-1166): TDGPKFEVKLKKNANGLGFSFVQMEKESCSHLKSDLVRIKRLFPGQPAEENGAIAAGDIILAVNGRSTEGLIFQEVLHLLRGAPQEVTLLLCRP
Chain of CASK, O14936 (O14936 487-570): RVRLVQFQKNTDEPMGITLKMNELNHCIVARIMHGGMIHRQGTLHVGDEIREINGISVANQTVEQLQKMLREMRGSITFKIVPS
Chain of LAP2, Q96RT1 (Q96RT1 other isoform, or with tags, fused parts or gaps): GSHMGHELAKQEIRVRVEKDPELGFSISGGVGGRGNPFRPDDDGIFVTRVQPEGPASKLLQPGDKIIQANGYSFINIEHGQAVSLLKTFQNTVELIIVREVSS
Chain of GRIP2_3, Q9C0E4 (Q9C0E4 238-339): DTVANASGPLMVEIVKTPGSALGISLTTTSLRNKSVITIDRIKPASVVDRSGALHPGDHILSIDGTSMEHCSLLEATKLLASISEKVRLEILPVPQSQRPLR

Binder: RRLPGKETMA [GRIK2, Q13002]
- pKd (FRMPD2_2, Q68DX3; [1]): below the threshold
- pKd (NHERF2_2, Q15599; [1]): below the threshold
- pKd (GRIP2_6, Q9C0E4; [1]): below the threshold
- pKd (Inadl_2, Q8NI35; [1]): below the threshold
- pKd (MPDZ_10, O75970; [1]): below the threshold
- pKd (PDZRN3_1, Q9UPQ7; [1]): below the threshold
- pKd (DLG3_3, Q92796; [1]): below the threshold
- pKd (FRMPD2_3, Q68DX3; [1]): below the threshold
- pKd (PTPN13_1, Q12923; [1]): below the threshold
- pKd (LNX1_1, Q8TBB1; [1]): below the threshold
- pKd (GRIP2_5, Q9C0E4; [1]): below the threshold
- pKd (TJP1_3, Q07157; [1]): below the threshold
- pKd (NHERF3_1, Q5T2W1; [1]): below the threshold
- pKd (LAP2, Q96RT1; [1]): below the threshold
- pKd (LNX1_2, Q8TBB1; [1]): below the threshold
- pKd (SNTG2, Q9NY99; [1]): below the threshold
- pKd (PARD3_3, Q8TEW0; [1]): below the threshold
- pKd (APBA1_2, Q02410; [1]): below the threshold
- pKd (HTRA2, O43464; [1]): below the threshold
- pKd (CASK, O14936; [1]): below the threshold
- pKd (GORASP1, Q9BQQ3; [1]): below the threshold
- pKd (MAGI1_1, Q96QZ7; [1]): below the threshold
- pKd (PARD3B_1, Q8TEW8; [1]): below the threshold
- pKd (GRIP2_4, Q9C0E4; [1]): below the threshold
- pKd (APBA2_1, Q99767; [1]): below the threshold
- pKd (GRIP2_3, Q9C0E4; [1]): below the threshold
- pKd (TIAM2, Q8IVF5; [1]): 3.97

Binder: SKPTRRETEV [HPV35-E6_-2P, P27228]
- pKd (FRMPD2_2, Q68DX3; [2]): below the threshold
- pKd (NHERF2_2, Q15599; [2]): below the threshold
- pKd (GRIP2_6, Q9C0E4; [2]): below the threshold
- pKd (Inadl_2, Q8NI35; [2]): below the threshold
- pKd (MPDZ_10, O75970; [2]): below the threshold
- pKd (PDZRN3_1, Q9UPQ7; [2]): below the threshold
- pKd (DLG3_3, Q92796; [2]): below the threshold
- pKd (FRMPD2_3, Q68DX3; [2]): below the threshold
- pKd (PTPN13_1, Q12923; [2]): below the threshold
- pKd (LNX1_1, Q8TBB1; [2]): below the threshold
- pKd (GRIP2_5, Q9C0E4; [2]): below the threshold
- pKd (TJP1_3, Q07157; [2]): below the threshold
- pKd (NHERF3_1, Q5T2W1; [2]): below the threshold
- pKd (LAP2, Q96RT1; [2]): below the threshold
- pKd (LNX1_2, Q8TBB1; [2]): below the threshold
- pKd (SNTG2, Q9NY99; [2]): below the threshold
- pKd (PARD3_3, Q8TEW0; [2]): below the threshold
- pKd (APBA1_2, Q02410; [2]): below the threshold
- pKd (HTRA2, O43464; [2]): below the threshold
- pKd (CASK, O14936; [2]): below the threshold
- pKd (GORASP1, Q9BQQ3; [2]): below the threshold
- pKd (MAGI1_1, Q96QZ7; [2]): below the threshold
- pKd (PARD3B_1, Q8TEW8; [2]): below the threshold
- pKd (GRIP2_4, Q9C0E4; [2]): below the threshold
- pKd (APBA2_1, Q99767; [2]): below the threshold
- pKd (GRIP2_3, Q9C0E4; [2]): below the threshold
- pKd (TIAM2, Q8IVF5; [2]): below the threshold

Binder: RRRESYSTTV [EVI5, O60447]
- pKd (FRMPD2_2, Q68DX3; [1]): 3.74
- pKd (NHERF2_2, Q15599; [1]): 4.21
- pKd (GRIP2_6, Q9C0E4; [1]): 4.61
- pKd (Inadl_2, Q8NI35; [1]): below the threshold
- pKd (MPDZ_10, O75970; [1]): below the threshold
- pKd (PDZRN3_1, Q9UPQ7; [1]): 3.83
- pKd (DLG3_3, Q92796; [1]): 4.28
- pKd (FRMPD2_3, Q68DX3; [1]): below the threshold
- pKd (PTPN13_1, Q12923; [1]): below the threshold
- pKd (LNX1_1, Q8TBB1; [1]): 4.47
- pKd (GRIP2_5, Q9C0E4; [1]): below the threshold
- pKd (TJP1_3, Q07157; [1]): below the threshold
- pKd (NHERF3_1, Q5T2W1; [1]): 4.31
- pKd (LAP2, Q96RT1; [1]): 3.88
- pKd (LNX1_2, Q8TBB1; [1]): 3.99
- pKd (SNTG2, Q9NY99; [1]): 4.13
- pKd (PARD3_3, Q8TEW0; [1]): below the threshold
- pKd (APBA1_2, Q02410; [1]): 3.74
- pKd (HTRA2, O43464; [1]): below the threshold
- pKd (CASK, O14936; [1]): below the threshold
- pKd (GORASP1, Q9BQQ3; [1]): 4.7
- pKd (MAGI1_1, Q96QZ7; [1]): below the threshold
- pKd (PARD3B_1, Q8TEW8; [1]): below the threshold
- pKd (GRIP2_4, Q9C0E4; [1]): below the threshold
- pKd (APBA2_1, Q99767; [1]): below the threshold
- pKd (GRIP2_3, Q9C0E4; [1]): below the threshold
- pKd (TIAM2, Q8IVF5; [1]): below the threshold

Binder: LRSPRTPSEV [OR10G3, Q8NGC4]
- pKd (FRMPD2_2, Q68DX3; [1]): below the threshold
- pKd (NHERF2_2, Q15599; [1]): below the threshold
- pKd (GRIP2_6, Q9C0E4; [1]): below the threshold
- pKd (Inadl_2, Q8NI35; [1]): below the threshold
- pKd (MPDZ_10, O75970; [1]): 3.67
- pKd (PDZRN3_1, Q9UPQ7; [1]): below the threshold
- pKd (DLG3_3, Q92796; [1]): below the threshold
- pKd (FRMPD2_3, Q68DX3; [1]): below the threshold
- pKd (PTPN13_1, Q12923; [1]): 3.71
- pKd (LNX1_1, Q8TBB1; [1]): below the threshold
- pKd (GRIP2_5, Q9C0E4; [1]): below the threshold
- pKd (TJP1_3, Q07157; [1]): below the threshold
- pKd (NHERF3_1, Q5T2W1; [1]): below the threshold
- pKd (LAP2, Q96RT1; [1]): 3.9
- pKd (LNX1_2, Q8TBB1; [1]): below the threshold
- pKd (SNTG2, Q9NY99; [1]): below the threshold
- pKd (PARD3_3, Q8TEW0; [1]): below the threshold
- pKd (APBA1_2, Q02410; [1]): 4.1
- pKd (HTRA2, O43464; [1]): below the threshold
- pKd (CASK, O14936; [1]): 3.61
- pKd (GORASP1, Q9BQQ3; [1]): below the threshold
- pKd (MAGI1_1, Q96QZ7; [1]): below the threshold
- pKd (PARD3B_1, Q8TEW8; [1]): below the threshold
- pKd (GRIP2_4, Q9C0E4; [1]): below the threshold
- pKd (APBA2_1, Q99767; [1]): below the threshold
- pKd (GRIP2_3, Q9C0E4; [1]): below the threshold
- pKd (TIAM2, Q8IVF5; [1]): below the threshold

Reference: PMC9482650, “Quantitative fragmentomics allow affinity mapping of interactomes” (Nature Communications, 2022)
